Experimental data as given in the supplement of paper PMC10567573.
± gives the standard deviation.

Experiment: protein stability index of a GFP-peptide fusion (GPS, HEK-293T) (PSI 1-6); higher = more stable
Details: c terminus: a fixed tail appended
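Also: 24-mer peptide tiles fused after GFP, lentivirally expressed, FACS-sorted into six equal bins by GFP/DsRed ratio, decoded by Illumina sequencing, PSI is the read-weighted mean bin number.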

Sequence | protein stability index (treatment: DMSO) | protein stability index (treatment: MLN4924 1 uM, 8 h)
QVEKNKYDASAIDFSRCDMDGATL [ELF3] | 4.63 ± 0.23 | 4.58 ± 0.14
QVLRFYAIWDDTDSMYGECRTYII [EFHC1] | 2.91 ± 1 | 2.58 ± 0.47
QVQSMVVGEVLKDIETACKLLNIT [SPDEF] | 2.42 ± 0.36 | 2.39 ± 0.35
RAGGWVSGEEFYMLTRRVLQLETV [PKD2L1] | 1.98 ± 0.14 | 2.5 ± 0.35
RASRTYELQNQLAACTRALESSEE [FSD1] | 5.01 ± 0.2 | 4.92 ± 0.26
RDAAGKPQRPRSAPRTSSCAERLQ [FCHO1] | 4.75 ± 0.15 | 4.68 ± 0.098
RDVKKTGFVFGTTLIMLLSLAAFS [RTN3] | 3.03 ± 0.43 | 3.19 ± 0.39
REDILSCYDVYSPDKEEQLPFGPF [PKD2L1] | 4.09 ± 0.17 | 3.93 ± 0.23
RESERRNHSLARHADILAAVETRL [FBXO28] | 3.71 ± 0.15 | 3.9 ± 0.27
RFLLYTNENPNNFQILLLSDPSTI [PNLIPRP1] | 2.94 ± 1 | 2.57 ± 0.61
RGDGGIYIGSIMKGGAVAADGRIE [DVL3] | 3.65 ± 0.18 | 3.75 ± 0.21
RGKRGYSRGLHAWEISWPLEQRGT [SPSB2] | 2.88 ± 0.087 | 3.03 ± 0.41
RGYPPPRDSYSSSSRGAPRGGGRG [RBMX] | 5.12 ± 0.36 | 5.3 ± 0.23
RHDGYATNDGNHPSCQETRDYAPP [RBMY1A1] | 5 ± 0.31 | 4.93 ± 0.084
RHRLITQVYLSHTAWTEACQVEVR [INTS4] | 2.37 ± 0.15 | 2.43 ± 0.51
RIIYMLLITIATFQIAANLSMERY [SLC19A2] | 3.32 ± 0.31 | 2.91 ± 0.12
RKLSSAVRSGIVEYLSLVKGGQDV [PRIM1] | 2.68 ± 0.36 | 2.77 ± 0.36
RKPVEAESVEGVVRILLEHYYKEN [INTS4] | 2.35 ± 0.27 | 2.41 ± 0.5
RKRKQSGHSPARAGKQRMKEKEQE [DDIT3] | 5.15 ± 0.34 | 5.51 ± 0.38
RLRLQRTGGLGGERERQPCGDGNT [SOAT2] | 4.59 ± 0.099 | 4.49 ± 0.14
RMNDLHYLNLDTWEWNELIPQGIC [KLHDC2] | 2.3 ± 0.58 | 2.31 ± 0.24
RNQCRYCRLKKCFRAGMKKEAVQN [HNF4A] | 2.9 ± 0.33 | 3.19 ± 0.45
RNQKGEQVFRLAFRSGALDLDSCS [MYORG] | 2.42 ± 0.33 | 2.48 ± 0.4

Sequence | protein stability index (treatment: DMSO) | protein stability index (treatment: MLN4924 1 uM, 8 h)
RPLLQYVQDMGQEDMLLPLAWRIV [CCNC] | 2.44 ± 0.17 | 2.24 ± 0.31
RPTPQDWLHRRAQILEILRRRPWA [ADAMTS4] | 2.63 ± 0.13 | 3.1 ± 0.48
RQLEIMGKEVSGDQIEDMFEQGKW [STX11] | 3.73 ± 0.13 | 3.56 ± 0.2
RQLYAVNRRLRALEEQGATWRHRE [FATE1] | 3.52 ± 0.3 | 3.56 ± 0.15
RQTVPPLTVRLHTQSVSECITEDG [PWWP2B] | 4.94 ± 0.11 | 4.7 ± 0.22
RRERELERRELAVEQGERALERRR [ZBED3] | 5.03 ± 0.44 | 5.18 ± 0.63
RRHLQFWKSHLKKVQKPLLQAPFL [RHOBTB1] | 2.14 ± 0.51 | 1.59 ± 0.26
RRKDVCQAIDHGCEHICVNSDDSY [MATN2] | 4.34 ± 0.22 | 4.53 ± 0.33
RRLGNGVSDDLSSEEDGEARTQMI [PHTF1] | 5.38 ± 0.2 | 5.21 ± 0.23
RRLLSYCKGRDHGVLDALHVLEGL [ZSWIM9] | 2.03 ± 0.21 | 2.16 ± 0.3
RRPSPVLRHLELLDEFARENIDSL [SCNN1D] | 3.31 ± 0.51 | 3.56 ± 0.38
RRQCRPEIRMWQTREKAKFSDGEK [PHTF1] | 3.87 ± 0.29 | 4.23 ± 0.051
RSCTPNAEVRHEIQDGTIHLYIYS [KMT2E] | 2.1 ± 0.33 | 2.57 ± 0.33
RSEPIRPIDPAAWVSHTAAMTGTF [DVL3] | 2.99 ± 0.09 | 3.04 ± 0.23
RSGGPPPKKSAPSAVARSNSWMGS [RBMY1A1] | 3.7 ± 0.27 | 3.64 ± 0.22
RSSSESKLPSSGSGKRLSGVSSVD [RIPK4] | 5.03 ± 0.19 | 5.07 ± 0.26
RTRRLGNMKNGANDVKHHRWFRSV [PRKX] | 3.17 ± 0.39 | 3.14 ± 0.38
RTSPSCAFRSDDTKGHPRAVSQPF [CDC14A] | 3.57 ± 0.22 | 3.62 ± 0.37
RTTVHDKSAHQTHSSWTPPNAQYW [DNAJC4] | 2.99 ± 0.32 | 3.02 ± 0.33
RVFQNRFSTQYRCFSVSMLAGPND [UFD1] | 2.38 ± 0.34 | 2.3 ± 0.26
RVLLTGLHAVADIHCENCKTTLGW [YPEL3] | 2.42 ± 0.69 | 2.27 ± 0.29
RVVCGIDSSMILTVPGQALACGSN [NEK8] | 2.73 ± 0.12 | 2.52 ± 0.29
RYEEANNNQYSEGVQREAQRIALR [KMT2E] | 4.3 ± 0.25 | 4.59 ± 0.2

Sequence | protein stability index (treatment: DMSO) | protein stability index (treatment: MLN4924 1 uM, 8 h)
RYFSAWAEDDHMLIQNEYRNGGSL [WEE1] | 2.67 ± 0.5 | 2.32 ± 0.4
RYLAVLESPIPEDKDRRFVFSYFL [EFHC1] | 2.37 ± 0.38 | 2.25 ± 0.85
RYNRKYLMCGGIAFWSLVTLGSSF [SPNS1] | 2.68 ± 0.88 | 2.77 ± 0.96
RYTQGTGGDEVDDSVSVNDIDLSL [ZC3H15] | 5.27 ± 0.29 | 4.89 ± 0.13
SAESSGCNSHMPYGYAAQARARER [KCNA4] | 4.43 ± 0.35 | 4.63 ± 0.2
SAGRSMPEASDQEEHLSPLDFLHS [RNF180] | 5.07 ± 0.12 | 4.88 ± 0.28
SAQAPPDSISLHQPCNPPAPAGDK [DMRTC1] | 5.38 ± 0.13 | 5.28 ± 0.28
SASSTGDLPKAKTRAADLLVNPLD [SRPK2] | 4.97 ± 0.29 | 4.99 ± 0.33
SCDLPEERYRHEIAHDGQRIYVLG [KLHDC10] | 3.81 ± 0.17 | 3.75 ± 0.25
SCTVTTVQPMDRLPYQHFSAHFTS [TBX5] | 2.23 ± 0.15 | 2.31 ± 0.17
SDDEMELEETEPPLEPEDALSDAE [P3H4] | 5.5 ± 0.27 | 5.59 ± 0.24
SDDHIRVIVQLHKLRHLDISRDRL [ZER1] | 2.38 ± 0.18 | 2.53 ± 0.11
SDEDDEEERRRRVFDVPIRRRRCS [FBXO3] | 5.41 ± 0.32 | 5.42 ± 0.27
SDGRQDSPAGELPKTVQQPTESEP [MATN2] | 5.51 ± 0.24 | 5.57 ± 0.35
SDPETKDFWLNMAALTEALQRQAE [FCHO1] | 3.29 ± 0.22 | 3.23 ± 0.32
SDSVHIEDAEAVEQLREALHEALL [ESRRA] | 3.09 ± 0.42 | 3.29 ± 0.34
SDTESTDLPSSTPVANSGTKPKTT [DLC1] | 5.47 ± 0.26 | 5.49 ± 0.22
SDVHPVALNFMKGCLKMNPDDRLT [CDKL4] | 3.55 ± 0.27 | 3.49 ± 0.18
SEEGQNGSSPKSKTKWTKEDGHRT [ADD1] | 5.36 ± 0.29 | 5.36 ± 0.23
SFMDGYKQKNAYIGTQGPLENTYR [PTPN9] | 3.04 ± 0.16 | 2.92 ± 0.24
SFQDNLHNRKKHLNGLQHLKAKKV [ZMAT5] | 3.51 ± 0.46 | 3.49 ± 0.23
SGASPKESTNPEKAHETLHQSLSL [CDC25A] | 4.95 ± 0.12 | 4.83 ± 0.11
SGYAGELGFRAFSGSGNRLDGKKK [UFD1] | 4.89 ± 0.069 | 4.74 ± 0.26

Sequence | protein stability index (treatment: DMSO) | protein stability index (treatment: MLN4924 1 uM, 8 h)
SGYGFRPSMVSGGYVANSSNCISG [KRT71] | 2.82 ± 0.2 | 2.73 ± 0.16
SHCSQLTTLSFYGNSISISALQSL [PRAME] | 2.87 ± 0.72 | 2.78 ± 0.58
SHPDTSYYIRYRGAVYADSGNFER [FEM1A] | 2.88 ± 0.38 | 2.83 ± 0.28
SIMSTGIVQGSSGAQGSGGGSTSA [CARM1] | 4.85 ± 0.24 | 5.12 ± 1
SKHLKEMYQELMEMCHKPDVELLQ [TRIM43] | 2.71 ± 0.26 | 2.7 ± 0.51
SKILSSKSKAYTVVGTPCYISPEL [NEK8] | 2.82 ± 0.12 | 2.88 ± 0.37
SKKFKNCFQSCLCCCCYQSKSLMT [EDNRA] | 2.78 ± 0.1 | 2.84 ± 0.15
SKLASNGTPMGTFAPLWEVFRVSS [FCHO1] | 2 ± 0.3 | 2.26 ± 0.22
SKLDTTKALNLLPANTQINDIRIF [VPS39] | 2.55 ± 0.33 | 2.66 ± 0.31
SKLKMLERKGWLAPSPGVKEQAIW [PKD2L1] | 2.26 ± 0.35 | 2.54 ± 0.3
SKVLSLQDLCCRTIVSCTPVHLVD [RAB40A] | 3.08 ± 0.27 | 2.98 ± 0.31
SLADQMSLLQSAWMEILILGVVYR [ESRRG] | 2.88 ± 0.55 | 2.86 ± 0.42
SLGELCHPVPLSFEPVKSFFKGLV [TRIM14] | 2.47 ± 0.7 | 1.89 ± 0.17
SLKAPGARGPGPEGGGGGSYFSGQ [JUNB] | 4.41 ± 0.45 | 4.67 ± 0.24
SLNKQIAQLQDFVRAKGSQSGRHL [STX5] | 3.08 ± 0.23 | 3.14 ± 0.55
SLQMSSAEMPHTETVSPLPSSMDL [NANOGP8] | 4.93 ± 0.15 | 4.94 ± 0.14
SLSAALLTAALLTFDTGCLTLSQY [POMT2] | 3.29 ± 0.32 | 3.11 ± 0.43
SLSSTATVLLVLEDEDPEEMPKSS [PCDHGC5] | 4.24 ± 0.12 | 4.08 ± 0.32
SLTLEDVAVDFTWEEWQFLSPAQK [ZNF649] | 3.83 ± 0.11 | 3.95 ± 0.12
SLVLILSLSYTVLIVGRIAIGVSI [SLC2A12] | 2.94 ± 0.2 | 3.41 ± 0.33
